This is an account of results in patent publication US20060062729A1, “Enhanced ligand binding to neurotensin receptors” (priority 2004, published 2006).

Usually IC50 stands for the midpoint of a concentration-inhibition curve. For orientation: Ki means the equilibrium dissociation constant of an inhibitor or competing ligand from its target.

Non-standard residues stand in square brackets, D forms with d. Residues, ends and D or L forms follow the SMILES beside them. *: point of attachment. PhAc = O=C(Cc1ccccc1)*

The target in one experiment is T1, bombesin receptor (Homo sapiens, UniProt P30550).
T1 construct: endogenous in cells; host or cells: PC3 cells (ATCC)
Briefly: ^125I-[Nle^14]-bombesin binding to PC3 cells. Conditions: 37° C.

For another experiment, the target named is T2, 5-LOX (Homo sapiens, UniProt P09917).
T2 sequence (P09917 1-674): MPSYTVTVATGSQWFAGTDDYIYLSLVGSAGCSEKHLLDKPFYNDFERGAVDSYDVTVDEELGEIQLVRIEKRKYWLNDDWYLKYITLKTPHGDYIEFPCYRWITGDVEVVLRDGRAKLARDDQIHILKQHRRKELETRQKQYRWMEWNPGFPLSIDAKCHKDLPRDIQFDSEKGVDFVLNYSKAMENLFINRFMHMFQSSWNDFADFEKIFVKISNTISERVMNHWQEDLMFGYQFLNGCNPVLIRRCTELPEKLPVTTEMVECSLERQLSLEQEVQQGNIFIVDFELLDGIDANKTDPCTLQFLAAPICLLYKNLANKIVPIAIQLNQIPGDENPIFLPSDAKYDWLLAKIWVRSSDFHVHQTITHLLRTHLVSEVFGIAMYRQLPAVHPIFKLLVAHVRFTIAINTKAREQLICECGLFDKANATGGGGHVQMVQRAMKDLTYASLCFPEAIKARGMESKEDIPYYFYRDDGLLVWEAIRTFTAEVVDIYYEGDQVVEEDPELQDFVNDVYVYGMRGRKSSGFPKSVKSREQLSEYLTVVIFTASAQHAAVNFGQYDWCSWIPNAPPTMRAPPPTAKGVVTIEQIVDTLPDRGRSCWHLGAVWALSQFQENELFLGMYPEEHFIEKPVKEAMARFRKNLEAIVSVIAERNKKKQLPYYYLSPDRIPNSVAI
The settings on record: range of reported values, various blood cell systems; cited from earlier work.

The target in experiment [1] is T3, NTR1 (Homo sapiens, UniProt P30989). Briefly: ^125I-NT binding to isolated PC3 cell membranes. Also noted: Ab-NTR1 detected two major bands in extracts of PC3 cells, the parent protein of 50 kDa; endogenous in cells; host or cells: PC3 cells (ATCC).
For experiment [2], the target named is T3, NTR1. Briefly: ^125I-NT binding to PC3 cells.
Experiment [3] addresses T4, vasopressin (V1a) receptor (Homo sapiens, UniProt P37288).
T4 construct: endogenous in cells; host or cells: PC3 cells (ATCC)
Briefly: ^125I-HOLVA binding to PC3 cells.

The test system of the next experiment is PC3 cells. Briefly: Ionomycin-stimulated IP formation in PC3 cells. In kind it is cell-based.
In experiment [4] the target is bombesin receptor of PC3 cells. Briefly: Scatchard analysis, PC3 cells.
Experiment [5] concerns the target bombesin receptor of PC3 cells. Briefly: 125I-ligand binding to PC3 cells.
Experiment [6] concerns the target bombesin receptor of PC3 cells. Briefly: 125I-ligand binding to PC3 cells with 12 µM NIF.
Experiment [7] concerns the target bombesin receptor of PC3 cells. Briefly: 125I-ligand binding to PC3 cells with 60 µM NIF.
The target in experiment [8] is bombesin receptor of PC3 cells. Briefly: 125I-ligand binding to PC3 cells with 12 µM SKF-96365.
In experiment [9] the target is bombesin receptor of PC3 cells. Briefly: 125I-ligand binding to PC3 cells with 12 µM phloretin.
Experiment [10] deals with bombesin receptor of PC3 cells. Briefly: 125I-ligand binding to PC3 cells with 12 µM verapamil.
The target in experiment [11] is bombesin receptor of PC3 cells. Briefly: 125I-ligand binding to PC3 cells with 60 µM SKF-96365.
The target of experiment [12] is bombesin receptor of PC3 cells. Briefly: 125I-ligand binding to PC3 cells with 60 µM phloretin.
In experiment [13] the target is bombesin receptor of PC3 cells. Briefly: 125I-ligand binding to PC3 cells with 60 µM verapamil.
Experiment [14] deals with bombesin receptor of PC3 cells. Briefly: 125I-ligand binding to PC3 cells, 37 C, with 12 µM NDGA.
Experiment [15] addresses bombesin receptor of PC3 cells. Briefly: 125I-ligand binding to PC3 cells, 37 C, with 60 µM NDGA.
The target of experiment [16] is bombesin receptor of PC3 cells. Briefly: 125I-ligand binding to PC3 cells, 37 C, with 12 µM MK886.
Experiment [17] addresses bombesin receptor of PC3 cells. Briefly: 125I-ligand binding to PC3 cells, 37 C, with 60 µM MK886.
Experiment [18] has as its target bombesin receptor of PC3 cells. Briefly: 125I-ligand binding to PC3 cells, 37 C, with 12 µM AA-861.
Experiment [19] deals with bombesin receptor of PC3 cells. Briefly: 125I-ligand binding to PC3 cells, 37 C, with 60 µM AA-861.
Experiment [20] addresses bombesin receptor of PC3 cells. Briefly: 125I-ligand binding to PC3 cells, 37 C, with 12 µM Rev-5901.
Experiment [21] addresses bombesin receptor of PC3 cells. Briefly: 125I-ligand binding to PC3 cells, 37 C, with 60 µM Rev-5901.
For experiment [22], the target named is bombesin receptor of PC3 cells.
In experiment [23] the target is neurotensin receptor NTR1 of PC3 cells (human) (UniProt P30989). Briefly: UV crosslinking to PC3 cells with NIF, immunoprecipitation with Ab-NTR1.
For experiment [24] the target is unchanged. Briefly: UV crosslinking to PC3 cells with phloretin, immunoprecipitation with Ab-NTR1.
The target is the same in experiment [25]. Briefly: UV crosslinking to PC3 cells with verapamil, immunoprecipitation with Ab-NTR1.
For experiment [26] the target is unchanged. Briefly: UV crosslinking to PC3 cells with 50 µM NDGA, immunoprecipitation with antiserum to NTR1.
Experiment [27] shares this target. Briefly: UV crosslinking to PC3 cells with 50 µM MK886, immunoprecipitation with antiserum to NTR1.

T3 sequence (P30989 whole entry): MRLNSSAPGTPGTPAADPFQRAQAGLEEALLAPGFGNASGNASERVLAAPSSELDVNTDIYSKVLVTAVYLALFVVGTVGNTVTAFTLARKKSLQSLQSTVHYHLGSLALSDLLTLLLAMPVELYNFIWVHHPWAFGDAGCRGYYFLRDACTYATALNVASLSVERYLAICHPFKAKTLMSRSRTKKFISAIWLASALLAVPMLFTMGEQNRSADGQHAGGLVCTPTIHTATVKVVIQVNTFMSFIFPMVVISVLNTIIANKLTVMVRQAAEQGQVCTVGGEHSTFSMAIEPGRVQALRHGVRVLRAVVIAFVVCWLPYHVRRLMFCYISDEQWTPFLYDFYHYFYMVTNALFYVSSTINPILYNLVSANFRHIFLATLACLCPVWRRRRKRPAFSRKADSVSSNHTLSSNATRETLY
neurotensin receptor NTR1 of PC3 cells (human), sequence (P30989 whole entry): as above
bombesin receptor of PC3 cells, sequence (P30550 whole entry): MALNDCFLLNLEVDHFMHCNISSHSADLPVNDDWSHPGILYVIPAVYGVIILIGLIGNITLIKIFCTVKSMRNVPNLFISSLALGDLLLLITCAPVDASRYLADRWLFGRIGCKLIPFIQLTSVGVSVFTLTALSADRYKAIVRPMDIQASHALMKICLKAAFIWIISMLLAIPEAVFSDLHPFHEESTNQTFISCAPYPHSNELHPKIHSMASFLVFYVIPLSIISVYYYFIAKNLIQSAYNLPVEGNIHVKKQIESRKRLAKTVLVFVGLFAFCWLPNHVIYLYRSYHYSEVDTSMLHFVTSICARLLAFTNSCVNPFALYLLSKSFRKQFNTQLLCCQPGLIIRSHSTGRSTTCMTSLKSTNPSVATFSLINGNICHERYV
T1 sequence (P30550 whole entry): as above
T4 sequence (P37288 whole entry): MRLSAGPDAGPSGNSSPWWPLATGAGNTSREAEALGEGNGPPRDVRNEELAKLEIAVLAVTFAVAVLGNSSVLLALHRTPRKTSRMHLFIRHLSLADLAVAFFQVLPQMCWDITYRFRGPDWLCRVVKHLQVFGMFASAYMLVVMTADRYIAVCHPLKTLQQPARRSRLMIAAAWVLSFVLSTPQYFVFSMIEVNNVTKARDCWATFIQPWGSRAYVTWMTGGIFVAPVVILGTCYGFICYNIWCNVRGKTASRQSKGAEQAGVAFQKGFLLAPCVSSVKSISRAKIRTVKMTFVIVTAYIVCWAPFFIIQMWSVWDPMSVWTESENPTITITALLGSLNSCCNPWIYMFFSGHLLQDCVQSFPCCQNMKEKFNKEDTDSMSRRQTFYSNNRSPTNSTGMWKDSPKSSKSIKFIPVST

With `CC1=C(C)C(=O)C(CCCCC#CCCCC#CCO)=C(C)C1=O` [AA861], the results for the “Specific Binding (% control) of ^125I-[Nle14]-bombesin” value at bombesin receptor (12 μM LOX blocker) and on bombesin receptor (60 μM LOX blocker) were 112 ± 4 % control and 135 ± 6 % control, respectively. The IC50 at 5-LOX is 100 to 2000 nM. Also, the “Specific NT-Binding (% control)” value on NTR1 [1] (10 μM LOX pathway blocker) is listed as 107 ± 4 % control; on NTR1 [1] (25 μM LOX pathway blocker), 109 ± 4 % control; on NTR1 [1] (75 μM LOX pathway blocker), 110 ± 5 % control.

`CCNC(=O)[C@H]1O[C@@H](n2cnc3c(N)nc(NCCc4ccc(CCC(=O)O)cc4)nc32)[C@H](O)[C@@H]1O` [CGS21683]: the IC50 on 5-LOX was 10 to 1000 nM. The “NT Binding Efficacy % increase” value on NTR1 [2] (LOX blockers) worked out at 228 % increase.

Take `CCCCCC#CCC#CCC#CCC#CCCCC(=O)O` [ETYA, 5,8,11,14-eicosatetraynoic acid]: the IC50 on 5-LOX is 6000 to 50000 nM.

With `CCOc1ccc(C[C@@H](NC(=O)Cc2ccccc2)C(=O)N[C@@H](Cc2ccccc2)C(=O)N[C@@H](CCC(N)=O)C(=O)N[C@@H](CC(N)=O)C(=O)N[C@@H](CCCCN)C(=O)N2CCC[C@H]2C(=O)N[C@@H](CCCNC(=N)N)C(N)=O)cc1` [^125I-HOLVA, des-Gly-[Phaa1, D-Tyr(Et)2, Lys6, Arg8]-vasopressin] (PhAc-[dY](Et)FQNKPR-NH2; N-terminus and C-terminus assumed), in experiment [3] (10^5 cpm ^125I-ligand), the “Specific Binding (% of total)” value was 77 % of total. The compound also displayed a Bmax in experiment [3] (Scatchard analysis) of 156 ± 12 fmol/mg.

As to `C[C@H](CCC(=O)O)C[C@H](C)C[C@H](C)C(=O)/C=C(\O)[C@H](C)C[C@H](C)C/C=C/[C@@H](C)[C@@H](O)[C@@H](C)[C@@H](O)C[C@@H]1CC[C@@](C)([C@H]2CC[C@@](C)([C@@H](C)O)O2)O1` [ionomycin], the “IP formation (% control)” value in the experiment on PC3 cells (2 μM ionomycin) came to 139±6%; with PC3 cells (10 μM ionomycin) it was 157±5 % control; with PC3 cells (20 μM ionomycin), 324±14%; in the experiment with PC3 cells (25 μM ionomycin), 322±11 % control. Also, in the experiment on PC3 cells (IP formation), the “share of the NT response reproduced” value was roughly 63%. Moreover, the “reversal of NIF enhancement of NT binding” value at NTR1 [2] (20 μM ionomycin) was “not reversed”.

The compound [Tyr^4, Nle^14]-bombesin (peptide) returned a Bmax in experiment [4] of 1020 fmol/mg. For the same compound, in experiment [5], the Specific Binding (% of total) is 95 % of total. Further, the Specific Binding (% control) in experiment [6] came out at 108 % control; in [7], 119 % control; in experiment [8], 99 % control; in [9], 104 % control; in [10] it was 104 % control; in experiment [11], 106 % control. For the same compound, the Specific Binding (% control) in experiment [12] worked out at 111 % control; in experiment [13], 104 % control; in [14], 110 % control; in experiment [15], 127 % control; in experiment [16] it was 106 % control; in experiment [17], 125 % control. Also, the Specific Binding (% control) was 112 % control in experiment [18], 135 % control in experiment [19], 107 % control in [20] and 119 % control in [21]. In addition, the Ki in experiment [22] is 0.6 nM.

Consider ^125I-[4-azido-Phe^6]-NT (peptide), for which the fold increase in radioactivity associated with NTR1 in experiment [23] stood at 2.8 fold; in experiment [24], 1.8 fold; in experiment [25], 1.5 fold; in experiment [26] it was 2.6 fold; in experiment [27], 2.7 fold.
